Assay results reported in paper PMC5888754.
Where a chain is given by its changes, count along the chain named. Where two headings read alike, the source gives them in different places.

Assays:
CYV-VP3 (Culex Y virus) = assay: competition
Dcr-2;Loqs-PD (LqPD) = Dcr-2;Loqs-PD (LqPD) (Drosophila melanogaster?;Drosophila …, UniProt A1ZAW0;Q9VJY9-4 1-1722;1-359, |); assay: single-molecule TIRF
DCV-1A [1] = target: T1, DCV-1A (Drosophila C virus, UniProt O36966 1-97); assay: single-molecule TIRF
T1 sequence: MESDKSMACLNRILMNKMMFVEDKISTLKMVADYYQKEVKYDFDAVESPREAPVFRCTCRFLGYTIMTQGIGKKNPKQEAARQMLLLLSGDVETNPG

DCV-1A [2] = target: T1, DCV-1A; assay: single-molecule TIRF; remark: listed apart in the source
DXV-VP3 = target: T2, DXV-VP3 (Drosophila X virus, UniProt Q96724 724-1032); assay: single-molecule TIRF
T2 sequence: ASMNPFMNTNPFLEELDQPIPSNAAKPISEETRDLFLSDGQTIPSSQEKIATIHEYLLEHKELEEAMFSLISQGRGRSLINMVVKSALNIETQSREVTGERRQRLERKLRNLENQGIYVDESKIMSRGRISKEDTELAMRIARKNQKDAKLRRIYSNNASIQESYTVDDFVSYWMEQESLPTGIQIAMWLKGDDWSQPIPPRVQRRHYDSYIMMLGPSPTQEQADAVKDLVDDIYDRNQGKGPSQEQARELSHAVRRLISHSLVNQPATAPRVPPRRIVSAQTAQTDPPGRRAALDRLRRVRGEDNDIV

DCV-1A [3] = target: T1, DCV-1A; assay: single-molecule TIRF; remark: listed apart in the source

How did the binding signal (CYV-VP3 (Culex Y virus)) turn out when “GGCAAUGAAAGAUCGCGGGUCUGCUCAAACACUCCGUUAUGUAGCAUUCCUUGAUCGUGAGAUUCUUCUU / AAGAAGAAUCUCACGAUCAAGGAAUGCUACAUAACGGAGUGUUUGAGCAGACCCGCGAUCUUUCAUUGCC [70-nt dsRNA blunt end]” was run?
The binding signal was 80 % inhibition.

B1: 70-nt dsRNA blunt end (dsRNA)
RNA 1: GGCAAUGAAAGAUCGCGGGUCUGCUCAAACACUCCGUUAUGUAGCAUUCCUUGAUCGUGAGAUUCUUCUU
RNA 2: AAGAAGAAUCUCACGAUCAAGGAAUGCUACAUAACGGAGUGUUUGAGCAGACCCGCGAUCUUUCAUUGCC
Does B1 bind (Dcr-2;Loqs-PD (LqPD))?
Result: binds

B2: pre-let-7a-1 (2 mismatches) (structured_RNA)
RNA: UGAGGUAGUAGGUUGUAUAGUUUUAGGGUCACACCCACCACUGGGAGAUAACUAUACAAUCUACUGUCUUUCU
Does B2 bind (DCV-1A [1])?
Result: binds

B3: pre-miRNA (no mismatches) (structured_RNA)
RNA: B2 RNA with G5A, U6C
Does B3 bind (DCV-1A [2])?
Result: binds

B4: 50-nt dsRNA (structured_RNA)
RNA: GGGACCUCAUCCAACAUAUCAAACUCCAUCAUCCAACAUAUCAAACUCCAGUCGAGUGGAGUUUGAUAUGUUGGAUGAUGGAGUUUGAUAUGUUGGAUGAGGUCCCAA
Does B4 bind (DXV-VP3)?
Result: binds

Does B4 bind (DCV-1A [3])?
Result: binds
